Data taken from patent US20240009240A1 (published 2024).

T1: EGFR L858R peptide on HLA-A*11:01 (human)
T1 peptide: KITDFGRAK


Columns and labels:
[1] = target: … (SEQ ID NO:71) presented on HLA-A*1101 on HLA-A*1101-transduced 293 target cells (human); test: cell-based or functional assay
[2] = target: T1, EGFR L858R peptide on HLA-A*11:01; test: killing
[3] = target: T1, EGFR L858R peptide on HLA-A*11:01; test: multimer staining

| Binder | binding result [3] | other results |
| --- | --- | --- |
| #1. EGFRA11 TCRA11-6; TRAV14DV4*02 J8*01/TRBV12-4*01 C1 J1-1*01 (TCR) TCR alpha: QKITQTQPGMFVQEKEAVTLDCTYDTSDQSYGLFWYKQPSSGEMIFLIYQGSYDEQNATEGRYSLNFQKARKSANLVISASQLGDSAMYFCAMNTGFQKLVFGTGTRLLVSPNIQNPDPAVYQLRDSKSSDKSVCLFTDFDSQTNVSQSKDSDVYITDNAVLDMRSMDFKSNSAVAWSNKSDFACANAFNNSIIPEDTFFPSPESSCDVKLVEKSFETDTNLNFQNLSVIGFRILLLKVAGFNLLMTLRLWSSRAKRSGSGATNFSLLKQAGDVEENPGP TCR beta: GVIQSPRHEVTEMGQEVTLRCKPISGHDYLFWYRQTMMRGLELLIYFNNNVPIDDSGMPEDRFSAKMPNASFSTLKIQPSEPRDSAVYFCASRNGPEAFFGQGTRLTVVEDLNKVFPPEVAVFEPSEAEISHTQKATLVCLATGFFPDHVELSWWVNGKEVHSGVCTDPQPLKEQPALNDSRYCLSSRLRVSATFWQNPRNHFRCQVQFYGLSENDEWTQDRAKPVTQIVSAEAWGRADCGFTSVSYQQGVLSATILYEILLGKATLYAVLVSALVLMAMVKRKDF |  | specific lysis of 293A11 cells pulsed with different amounts of EGFR-A11 peptide, T cells expressing TCR6 construct at a 20:1 ratio (Cr51 release) [1]: 20 ng/mL |
| EGFRA11 TCRA11-6 (TCR, V domains shown) Valpha: QKITQTQPGMFVQEKEAVTLDCTYDTSDQSYGLFWYKQPSSGEMIFLIYQGSYDEQNATEGRYSLNFQKARKSANLVISASQLGDSAMYFCAMNTGFQKLVFGTGTRLLVSP Vbeta: DAGVIQSPRHEVTEMGQEVTLRCKPISGHDYLFWYRQTMMRGLELLIYFNNNVPIDDSGMPEDRFSAKMPNASFSTLKIQPSEPRDSAVYFCASRNGPEAFFGQGTRLTVV |  | binding result [2]: recognises |
| EGFRA11 TCRA11-7-8 (TCR, V domains shown) Valpha: RKEVEQDPGPFNVPEGATVAFNCTYSNSASQSFFWYRQDCRKEPKLLMSVYSSGNEDGRFTAQLNRASQYISLLIRDSKLSDSATYLCVVIGGGADGLTFGKGTHLIIQP Vbeta: GVIQSPRHEVTEMGQEVTLRCKPISGHDYLFWYRQTMMRGLELLIYFNNNVPIDDSGMPEDRFSAKMPNASFSTLKIQPSEPRDSAVYFCASRNGPEAFFGQGTRLTVV | recognises |  |
| EGFRA11 TCRA11-7-12 (TCR, V domains shown) Valpha: RKEVEQDPGPFNVPEGATVAFNCTYSNSASQSFFWYRQDCRKEPKLLMSVYSSGNEDGRFTAQLNRASQYISLLIRDSKLSDSATYLCVVIGGGADGLTFGKGTHLIIQP Vbeta: GVTQSPTHLIKTRGQQVTLRCSSQSGHNTVSWYQQALGQGPQFIFQYYREEENGRGNFPPRFSGLQFPNYSSELNVNALELDDSALYLCASSVGGDTEAFFGQGTRLTVV | recognises |  |
| EGFRA11 TCRA11-7-18 (TCR, V domains shown) Valpha: RKEVEQDPGPFNVPEGATVAFNCTYSNSASQSFFWYRQDCRKEPKLLMSVYSSGNEDGRFTAQLNRASQYISLLIRDSKLSDSATYLCVVIGGGADGLTFGKGTHLIIQP Vbeta: EPEVTQTPSHQVTQMGQEVILRCVPISNHLYFYWYRQILGQKVEFLVSFYNNEISEKSEIFDDQFSVERPDGSNFTLKIRSTKLEDSAMYFCASSGQGDLLYGYTFGSGTRLTVV | recognises |  |
